Target: tubulin purified on a phosphocellulose column (mouse)
Test: cell-based or functional assay

Sequence of tubulin purified on a phosphocellulose column (mouse) (P68369 whole entry, chain 1 of 2): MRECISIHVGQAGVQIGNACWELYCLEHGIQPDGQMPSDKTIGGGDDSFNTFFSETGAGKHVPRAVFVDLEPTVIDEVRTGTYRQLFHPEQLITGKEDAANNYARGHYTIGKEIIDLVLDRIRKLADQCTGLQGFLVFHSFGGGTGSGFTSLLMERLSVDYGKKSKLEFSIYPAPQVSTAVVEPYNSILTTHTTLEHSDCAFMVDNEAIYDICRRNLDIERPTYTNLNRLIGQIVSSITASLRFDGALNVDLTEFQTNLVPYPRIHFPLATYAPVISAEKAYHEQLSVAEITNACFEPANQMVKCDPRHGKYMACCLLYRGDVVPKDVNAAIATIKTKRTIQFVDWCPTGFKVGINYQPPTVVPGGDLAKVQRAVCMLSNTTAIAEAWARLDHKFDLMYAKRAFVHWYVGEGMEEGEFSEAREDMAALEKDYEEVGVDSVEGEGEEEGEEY
Sequence of tubulin purified on a phosphocellulose column (mouse) (Q9ERD7 whole entry, chain 2 of 2, further chain): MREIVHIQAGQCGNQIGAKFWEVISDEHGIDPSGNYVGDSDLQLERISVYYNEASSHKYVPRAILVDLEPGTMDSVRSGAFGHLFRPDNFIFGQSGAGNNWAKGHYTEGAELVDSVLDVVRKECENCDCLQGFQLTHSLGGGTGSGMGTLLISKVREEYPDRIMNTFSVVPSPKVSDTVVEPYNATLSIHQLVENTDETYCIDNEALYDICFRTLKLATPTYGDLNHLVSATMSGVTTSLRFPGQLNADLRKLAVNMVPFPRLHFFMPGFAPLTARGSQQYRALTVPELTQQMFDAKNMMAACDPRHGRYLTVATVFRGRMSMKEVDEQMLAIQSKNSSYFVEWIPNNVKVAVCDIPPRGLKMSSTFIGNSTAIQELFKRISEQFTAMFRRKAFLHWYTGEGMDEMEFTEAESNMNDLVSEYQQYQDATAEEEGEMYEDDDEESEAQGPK

Row | Substance | inhibition of tubulin polymerization (% inhibition at 100 µM) | T98G cells in phase G1 after 48 hours with 10 µM peptide (FACS; 39% in untreated cultures) (% of cells in G1)
1 | Neurofilament Light subunit-Tubulin Binding Site 1 (NFL-TBS1) (peptide) | 30 | –
2 | Neurofilament Light subunit-Tubulin Binding Site 2 (NFL-TBS2) (peptide) | 100 | 61
3 | Neurofilament Medium subunit-Tubulin Binding Site (NFM-TBS) (peptide) | 30 | –
4 | Neurofilament high subunit-Tubulin Binding Site (NFH-TBS) (peptide) | 30 | –

Source: US20090221476A1
